From doi:10.1101/854158 (bioRxiv, 2019) come the findings set out here.

T1: FANCA (human, UniProt O15360 1-1455)
T1 sequence: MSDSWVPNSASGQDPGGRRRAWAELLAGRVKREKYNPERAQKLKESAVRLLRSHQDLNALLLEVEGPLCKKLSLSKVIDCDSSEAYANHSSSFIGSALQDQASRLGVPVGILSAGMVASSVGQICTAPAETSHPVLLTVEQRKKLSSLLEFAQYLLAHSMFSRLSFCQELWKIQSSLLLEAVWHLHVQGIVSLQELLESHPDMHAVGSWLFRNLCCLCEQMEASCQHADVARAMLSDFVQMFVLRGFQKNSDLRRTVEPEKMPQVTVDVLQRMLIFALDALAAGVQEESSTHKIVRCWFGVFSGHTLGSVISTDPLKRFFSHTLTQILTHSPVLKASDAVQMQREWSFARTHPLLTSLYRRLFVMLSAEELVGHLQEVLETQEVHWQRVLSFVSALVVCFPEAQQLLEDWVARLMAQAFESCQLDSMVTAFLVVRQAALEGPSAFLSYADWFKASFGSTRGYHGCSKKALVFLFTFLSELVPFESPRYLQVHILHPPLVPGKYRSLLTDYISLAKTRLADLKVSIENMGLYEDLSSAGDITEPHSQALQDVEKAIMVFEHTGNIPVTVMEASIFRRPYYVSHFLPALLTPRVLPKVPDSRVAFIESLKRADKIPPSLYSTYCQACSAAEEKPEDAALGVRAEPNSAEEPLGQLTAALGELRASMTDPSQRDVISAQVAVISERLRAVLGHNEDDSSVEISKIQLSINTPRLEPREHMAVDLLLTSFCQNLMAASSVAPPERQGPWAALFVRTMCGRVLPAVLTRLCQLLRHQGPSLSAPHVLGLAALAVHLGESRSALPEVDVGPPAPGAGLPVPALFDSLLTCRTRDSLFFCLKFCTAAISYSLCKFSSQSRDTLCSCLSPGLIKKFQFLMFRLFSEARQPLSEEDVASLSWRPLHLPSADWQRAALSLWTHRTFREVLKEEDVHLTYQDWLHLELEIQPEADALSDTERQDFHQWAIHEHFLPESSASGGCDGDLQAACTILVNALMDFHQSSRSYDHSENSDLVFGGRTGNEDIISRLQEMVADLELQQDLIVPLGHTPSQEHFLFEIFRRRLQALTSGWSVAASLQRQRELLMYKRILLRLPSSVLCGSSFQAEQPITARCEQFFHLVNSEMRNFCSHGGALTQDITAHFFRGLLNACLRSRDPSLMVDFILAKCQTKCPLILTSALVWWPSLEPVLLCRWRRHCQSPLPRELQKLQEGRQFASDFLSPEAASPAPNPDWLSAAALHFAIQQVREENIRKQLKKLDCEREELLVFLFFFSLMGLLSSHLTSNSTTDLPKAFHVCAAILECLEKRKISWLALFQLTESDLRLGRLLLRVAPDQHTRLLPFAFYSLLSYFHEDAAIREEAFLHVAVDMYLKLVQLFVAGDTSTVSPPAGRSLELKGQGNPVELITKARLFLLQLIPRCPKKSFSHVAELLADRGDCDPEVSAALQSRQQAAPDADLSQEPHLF

T2: FANCB (human, UniProt Q8NB91 1-859)
T2 sequence: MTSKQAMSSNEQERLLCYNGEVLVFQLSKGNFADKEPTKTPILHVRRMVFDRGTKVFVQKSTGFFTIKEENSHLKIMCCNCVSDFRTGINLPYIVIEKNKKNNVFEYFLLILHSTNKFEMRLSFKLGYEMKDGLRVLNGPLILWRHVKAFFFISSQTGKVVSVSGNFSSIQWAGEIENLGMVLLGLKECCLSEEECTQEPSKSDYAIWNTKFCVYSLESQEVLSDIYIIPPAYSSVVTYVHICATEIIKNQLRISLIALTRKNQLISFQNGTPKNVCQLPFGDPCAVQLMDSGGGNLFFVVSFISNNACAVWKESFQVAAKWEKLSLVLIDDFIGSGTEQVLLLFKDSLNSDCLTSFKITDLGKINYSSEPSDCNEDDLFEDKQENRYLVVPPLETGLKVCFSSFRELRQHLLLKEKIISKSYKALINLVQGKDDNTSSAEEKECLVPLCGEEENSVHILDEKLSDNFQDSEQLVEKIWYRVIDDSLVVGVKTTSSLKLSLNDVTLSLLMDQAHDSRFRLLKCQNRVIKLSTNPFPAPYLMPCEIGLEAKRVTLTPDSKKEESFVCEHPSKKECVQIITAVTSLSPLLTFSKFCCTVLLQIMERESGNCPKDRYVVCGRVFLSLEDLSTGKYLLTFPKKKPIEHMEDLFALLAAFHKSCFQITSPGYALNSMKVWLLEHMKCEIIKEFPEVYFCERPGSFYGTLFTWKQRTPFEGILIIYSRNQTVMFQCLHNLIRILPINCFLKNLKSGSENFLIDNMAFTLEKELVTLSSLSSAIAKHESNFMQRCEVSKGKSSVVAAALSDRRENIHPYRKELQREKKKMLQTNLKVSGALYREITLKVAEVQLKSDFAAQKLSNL

T3: FAAP100 (human, UniProt Q0VG06 1-881)
T3 sequence: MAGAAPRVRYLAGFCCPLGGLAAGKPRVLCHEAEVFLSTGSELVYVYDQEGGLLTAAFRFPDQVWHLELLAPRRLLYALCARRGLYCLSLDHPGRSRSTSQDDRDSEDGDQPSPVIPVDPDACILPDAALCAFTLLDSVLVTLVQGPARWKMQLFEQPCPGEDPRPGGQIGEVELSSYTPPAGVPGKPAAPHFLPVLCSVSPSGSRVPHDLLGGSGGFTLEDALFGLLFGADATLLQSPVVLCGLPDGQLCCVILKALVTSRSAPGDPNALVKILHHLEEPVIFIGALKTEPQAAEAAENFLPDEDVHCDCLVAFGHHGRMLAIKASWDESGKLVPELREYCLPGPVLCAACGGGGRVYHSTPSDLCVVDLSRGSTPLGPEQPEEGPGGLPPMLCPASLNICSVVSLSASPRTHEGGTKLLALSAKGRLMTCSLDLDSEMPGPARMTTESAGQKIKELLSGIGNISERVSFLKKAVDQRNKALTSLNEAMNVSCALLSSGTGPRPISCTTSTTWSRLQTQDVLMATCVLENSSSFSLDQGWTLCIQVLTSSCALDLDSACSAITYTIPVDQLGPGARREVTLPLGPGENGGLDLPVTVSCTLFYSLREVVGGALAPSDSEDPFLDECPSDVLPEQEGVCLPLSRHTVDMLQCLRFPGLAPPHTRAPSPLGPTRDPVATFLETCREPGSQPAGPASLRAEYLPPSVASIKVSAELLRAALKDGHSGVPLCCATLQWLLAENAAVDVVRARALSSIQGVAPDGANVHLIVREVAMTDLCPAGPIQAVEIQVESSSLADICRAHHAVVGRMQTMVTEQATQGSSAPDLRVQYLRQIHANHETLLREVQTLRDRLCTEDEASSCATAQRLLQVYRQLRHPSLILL

T4: FANCC (human, UniProt Q00597 1-558)
T4 sequence: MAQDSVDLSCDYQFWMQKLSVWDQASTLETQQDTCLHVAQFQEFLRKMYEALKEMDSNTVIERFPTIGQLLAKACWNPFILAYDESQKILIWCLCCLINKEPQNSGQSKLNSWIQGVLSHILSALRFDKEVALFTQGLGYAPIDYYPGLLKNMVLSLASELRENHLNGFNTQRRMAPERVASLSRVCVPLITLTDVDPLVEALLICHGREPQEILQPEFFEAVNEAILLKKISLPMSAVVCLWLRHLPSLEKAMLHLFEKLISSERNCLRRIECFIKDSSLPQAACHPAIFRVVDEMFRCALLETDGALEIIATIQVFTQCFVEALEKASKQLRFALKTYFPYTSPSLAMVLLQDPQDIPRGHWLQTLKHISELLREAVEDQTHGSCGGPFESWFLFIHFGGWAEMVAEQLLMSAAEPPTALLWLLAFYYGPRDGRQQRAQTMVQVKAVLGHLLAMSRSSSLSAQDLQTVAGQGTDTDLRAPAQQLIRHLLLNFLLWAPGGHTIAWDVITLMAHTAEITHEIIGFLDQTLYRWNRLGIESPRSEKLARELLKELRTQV

B1: FANCG (natural protein)
chain: MSRQTTSVGSSCLDLWREKNDRLVRQAKVAQNSGLTLRRQQLAQDALEGLRGLLHSLQGLPAAVPVLPLELTVTCNFIILRASLAQGFTEDQAQDIQRSLERVLETQEQQGPRLEQGLRELWDSVLRASCLLPELLSALHRLVGLQAALWLSADRLGDLALLLETLNGSQSGASKDLLLLLKTWSPPAEELDAPLTLQDAQGLKDVLLTAFAYRQGLQELITGNPDKALSSLHEAASGLCPRPVLVQVYTALGSCHRKMGNPQRALLYLVAALKEGSAWGPPLLEASRLYQQLGDTTAELESLELLVEALNVPCSSKAPQFLIEVELLLPPPDLASPLHCGTQSQTKHILASRCLQTGRAGDAAEHYLDLLALLLDSSEPRFSPPPSPPGPCMPEVFLEAAVALIQAGRAQDALTLCEELLSRTSSLLPKMSRLWEDARKGTKELPYCPLWVSATHLLQGQAWVQLGAQKVAISEFSRCLELLFRATPEEKEQGAAFNCEQGCKSDAALQQLRAAALISRGLEWVASGQDTKALQDFLLSVQMCPGNRDTYFHLLQTLKRLDRRDEATALWWRLEAQTKGSHEDALWSLPLYLESYLSWIRPSDRDAFLEEFRTSLPKSCDL
B2: FANCF (natural protein)
chain: MESLLQHLDRFSELLAVSSTTYVSTWDPATVRRALQWARYLRHIHRRFGRHGPIRTALERRLHNQWRQEGGFGRGPVPGLANFQALGHCDVLLSLRLLENRALGDAARYHLVQQLFPGPGVRDADEETLQESLARLARRRSAVHMLRFNGYRENPNLQEDSLMKTQAELLLERLQEVGKAEAERPARFLSSLWERLPQNNFLKVIAVALLQPPLSRRPQEELEPGIHKSPGEGSQVLVHWLLGNSEVFAAFCRALPAGLLTLVTSRHPALSPVYLGLLTDWGQRLHYDLQKGIWVGTESQDVPWEELHNRFQSLCQAPPPLKDKVLTALETCKAQDGDFEVPGLSIWTDLLLALRSGAFRKRQVLGLSAGLSSV

Holding throughout (experiment): cryo-EM structure
One assay addresses T1, FANCA.
A further assay addresses T2, FANCB.
Another assay concerns the target T3, FAAP100.
In a further assay the target is T4, FANCC.
The target of the assay “FANCG” is B1.

For B1, the binding result with FANCA, in the assay with FANCB and in the assay with FAAP100 was “binds” throughout.

In the case of B2, the binding result with FANCC and with FANCG was “binds” throughout.
